The text below walks through data of patent publication US20220348686A1 (Memorial Sloan Kettering, published 2022).

Experiment [1] has as its target T1, Human STEAP1 (human, UniProt Q9UHE8 1-339).
T1 construct: Endogenous on Ewing's sarcoma cell lines (TC32 and others) and prostate cancer cell lines; as STP1h transfected into HEK293 cells with a lentiviral vector (GFP part of the transgene); also called STP1h
Kind of experiment: flow cytometry on TC32 cells after repeated washes in PBS with 2 mM EDTA. As to the method: Following binding of the primary antibody, cells were washed in PBS with 2 mM EDTA from 1 to 10 times. After each wash cells were stained with the secondary PE-conjugated goat anti-human IgG antibody and washed once with PBS for flow cytometry. Mean fluorescence intensity (MFI) was normalized to time 1 and depicted in FIG. 4B. While chimeric antibody dropped to below 50% after first wash, clones L1+H1, L1+H2, L1+H5 and L2+H2 remained above 50% through wash #8 and therefore scored as slow koff.
After initial staining (FIG. 4A), ten different clones, including the chimeric BsAb clone, were chosen for further study. To assess binding of these ten clones to TC32 cells, following incubation of the BsAbs, the cells were subjected to ten washes with PBS. An aliquot of the binding reaction after each wash was stained with a fluorochrome labelled anti-human secondary antibody. The extent of binding of the anti-STEAP1 BsAbs to TC32 cells was measured using flow cytometry.

Experiment [2] deals with T1, Human STEAP1. Description: flow cytometry staining of TC32 cells with different doses.

T1 sequence (Q9UHE8 whole entry): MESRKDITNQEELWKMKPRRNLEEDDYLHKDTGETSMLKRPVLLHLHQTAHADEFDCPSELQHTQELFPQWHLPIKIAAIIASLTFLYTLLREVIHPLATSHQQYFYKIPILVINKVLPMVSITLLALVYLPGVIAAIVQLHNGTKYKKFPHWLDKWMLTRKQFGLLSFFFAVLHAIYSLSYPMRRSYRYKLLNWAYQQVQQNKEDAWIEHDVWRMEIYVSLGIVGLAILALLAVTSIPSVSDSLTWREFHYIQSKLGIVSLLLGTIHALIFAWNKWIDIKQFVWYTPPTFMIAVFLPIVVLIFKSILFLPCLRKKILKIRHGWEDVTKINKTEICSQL

B1: BC259 (VH-1+VL-1 BsAb variant) (bispecific antibody, V domains shown)
VH: QVQVQESGPGLVKPSQTLSLTCTVTGYSITSDYAWNWIRQPPGKGLEWMGYISNSGSTSYNPSLKSRITISRDTSKNQFSLKLSSVTAADTAVYYCARERNYDYDDYYYAMDYWGQGTTLTVSA
VL: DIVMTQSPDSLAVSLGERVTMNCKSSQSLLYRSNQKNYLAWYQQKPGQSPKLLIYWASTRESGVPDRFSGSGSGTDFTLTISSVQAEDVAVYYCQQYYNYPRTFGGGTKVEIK
notes: One of the 24 humanized X120 versions; light chain extended by (G4S)3 linker and huOKT3 anti-CD3 scFv); also called L1+H1
As for B1, in the experiment with Human STEAP1 [1], the “Mean fluorescence intensity (MFI) normalized to time 1, through wash #8” value was > 50%.

B2: humanized X120 clone L4+H1 (bispecific antibody, IgG1, V domains shown)
VH: QVQVQESGPGLVKPSQTLSLTCTVTGYSITSDYAWNWIRQPPGKGLEWMGYISNSGSTSYNPSLKSRITISRDTSKNQFSLKLSSVTAADTAVYYCARERNYDYDDYYYAMDYWGQGTTLTVSA
VL: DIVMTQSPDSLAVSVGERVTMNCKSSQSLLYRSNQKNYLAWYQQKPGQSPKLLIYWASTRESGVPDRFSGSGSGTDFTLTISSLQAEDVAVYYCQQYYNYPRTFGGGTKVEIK
notes: One of the 24 humanized X120 versions; light chain with (G4S)3 linker and huOKT3 scFv)
For the molecule B2, the binding result with Human STEAP1 [2] is on record as “binds”.

B3: humanized X120 clone L2+H1 (bispecific antibody, IgG1, V domains shown)
VH: QVQVQESGPGLVKPSQTLSLTCTVTGYSITSDYAWNWIRQPPGKGLEWMGYISNSGSTSYNPSLKSRITISRDTSKNQFSLKLSSVTAADTAVYYCARERNYDYDDYYYAMDYWGQGTTLTVSA
VL: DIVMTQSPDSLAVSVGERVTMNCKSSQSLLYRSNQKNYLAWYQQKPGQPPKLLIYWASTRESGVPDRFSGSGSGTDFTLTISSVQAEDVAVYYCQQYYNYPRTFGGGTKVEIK
notes: as for B2
On to B3, for which the binding result in the experiment with Human STEAP1 [2] is on record as “binds”.

B4: humanized X120 clone L4+H2 (bispecific antibody, IgG1, V domains shown)
VH: DVQVQESGPGLVKPSQTLSLTCTVTGYSITSDYAWNWIRQPPGKGLEWMGYISNSGSTSYNPSLKSRITISRDTSKNQFSLKLSSVTAADTAVYYCARERNYDYDDYYYAMDYWGQGTTLTVSA
VL: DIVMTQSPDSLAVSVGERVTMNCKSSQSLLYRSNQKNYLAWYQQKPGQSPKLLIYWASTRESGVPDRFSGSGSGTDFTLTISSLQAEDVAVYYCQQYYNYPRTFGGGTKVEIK
notes: as for B2
Turning to B4, the binding result with Human STEAP1 [2] is on record as “binds”.

B5: BC260 (VH-2+VL-1 BsAb variant) (bispecific antibody, V domains shown)
VH: DVQVQESGPGLVKPSQTLSLTCTVTGYSITSDYAWNWIRQPPGKGLEWMGYISNSGSTSYNPSLKSRITISRDTSKNQFSLKLSSVTAADTAVYYCARERNYDYDDYYYAMDYWGQGTTLTVSA
VL: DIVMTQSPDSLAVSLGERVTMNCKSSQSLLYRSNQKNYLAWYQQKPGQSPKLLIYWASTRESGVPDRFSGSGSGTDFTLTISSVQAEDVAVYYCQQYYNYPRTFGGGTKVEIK
notes: One of the 24 humanized X120 versions; light chain extended by (G4S)3 linker and huOKT3 anti-CD3 scFv); also called L1+H2
As for B5, the “Mean fluorescence intensity (MFI) normalized to time 1, through wash #8” value with Human STEAP1 [1] is > 50%.
